In patent publication US9120869 (UNIVERSITY OF SOUTH FLORIDA A FLORIDA NON PROFIT, dated 2015):

T1: Duffy antigen receptor for chemokines (DARC) on Duffy-positive human erythrocytes (human, UniProt Q16570 1-336)
T1 construct: whole, on cells; also called Duffy blood group antigen; Duffy antigen surface receptor
T1 sequence: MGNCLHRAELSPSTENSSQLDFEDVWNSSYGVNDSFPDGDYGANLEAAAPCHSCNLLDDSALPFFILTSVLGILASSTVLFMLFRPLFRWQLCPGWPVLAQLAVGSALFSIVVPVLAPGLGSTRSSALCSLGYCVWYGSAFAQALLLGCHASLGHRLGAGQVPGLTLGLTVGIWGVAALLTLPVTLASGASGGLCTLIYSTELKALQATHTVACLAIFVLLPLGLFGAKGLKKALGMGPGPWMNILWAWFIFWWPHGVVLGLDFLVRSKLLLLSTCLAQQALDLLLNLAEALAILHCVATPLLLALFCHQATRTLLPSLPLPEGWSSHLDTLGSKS

B1: recombinant DBPII-Sal1 (refolded ligand domain, region II, of Plasmodium vivax Duffy binding protein, Sal1 variant) (ligand)
chain: NHAFLQNTVMKNCNYKRKRRERDWDCNTKKDVCIPDRRYQLCMKELTNLVNNTDTNFHRDITFRKLYLKRKLIYDAAVEGDLLLKLNNYRYNKDFCKDIRWSLGDFGDIIMGTDMEGIGYSKVVENNLRSIFGTDEKAQQRRKQWWNESKAQIWTAMMYSVKKRLKGNFIWICKLNVAVNIEPQIYRWIREWGRDYVSELPTEVQKLKEKCDGKINYTDKKVCKVPPCQNACKSYDQWITRKKNQWDVLSNKFISVKNAEKVQTAGIVTPYDILKQELDEFNEVAFENEINKRDGAYIEL
notes: also called recombinant Sal1; rSal1; not shown: C-terminal histidine tag from pET21a+
B2: COS7-expressed PvDBP-RII variant Sal 1 (ligand)
chain: B1 chain
notes: The (mut) plasmid differs from (original) by a PvuII to EcoRI site change; also called DBPII-Sal1 expressed on surface of COS7 cells; pEGFP-Sal 1 (original); not shown: C-terminal GFP tag (pEGFP-N1)

Experiments:
[1] = target: T1, Duffy antigen receptor for chemokines …; assay: erythrocyte binding assay, Western blot
[2] = target: T1, Duffy antigen receptor for chemokines …; assay: COS7 erythrocyte-binding assay (rosettes)

Row | Binder | binding result [1] | binding result [2]
1 | B1 | binds | 
2 | B2 |  | binds
